Data taken from patent US12098206B2, “PDGF receptor antibody and use thereof” (Seoul National University R&DB Foundation, priority 2018, dated 2024).

B1: PRb-CN01: anti-mPDGFR-β chicken scFv clone (VH SEQ ID NO 7, VL SEQ ID NO 8), tested as scFv-Cκ-anti-cotinine scFv bispecific antibody (antibody, V domains shown)
VH: AVTLDESGGGLQTPGGALSLVCKASGFTFSDRAMHWVRQAPGKGLEWVGLITNTGGSTNYGAAVKGRATISRDNGQSTVRLQLNNLRAEDTGTYYCTRGVGSWAHGGRIDAWGHGTEVIVSS
VL: LTQPSSVSANPGETVKITCSGGSGSYGWFQQKSPGSAPVTVIYSNNQRPSDIPSRFSGSKSGSTNTLTITGVQAEDEAIYYCGTRDSSYVGIFGAGTTLTVL
modifications: VH of PRb-CN01; VL of PRb-CN01
B2: PRb-CN16: anti-hPDGFR-β scFv clone (VH SEQ ID NO 39, VL SEQ ID NO 40), tested as scFv-Cκ-anti-cotinine scFv bispecific antibody (antibody, V domains shown)
VH: AVTLDESGGGLQTPGTALSLVCKASGFTFSSFNMAWVRQAPGKGLEFVGEISNTAGSTFYAPAVKGRATISRDNGQSTVRLQLNNLRAEDTAIYYCAKAAGTCYSHSCTGYIDAWGHGTEVIVSSTS
VL: LTQPSSVSANPGETVKITCSGSSSSYGWYQQKSPGSAPVTLIYENNQRPSNIPSRFSGSKSGSTGTLTITGVQAEDEAVYYCGNADRSNSAGTFGAGTTLTVL
modifications: VH of PRb-CN16; VL of PRb-CN16
B3: PRb-CN32: anti-hPDGFR-β scFv clone (VH SEQ ID NO 47, VL SEQ ID NO 48), tested as scFv-Cκ-anti-cotinine scFv bispecific antibody (antibody, V domains shown)
VH: AVTLDESGGGLQTPRGTLSLVCKASGFTFSSFNMFWVRQAPGKGLEFVAGISTTGRYTGYGSAVQGRGTISRDNGQSTVRLQLNNLRAEDTGTYYCAKSAGSTYSYWDSDAGLIDAWGHGTEVIVSSTS
VL: LTQPSSVSANLGETVKITCSGGSNAGSYYYGWYQQKSPGSAPVTVIYSNNQRPSDIPSRFSGSTSGSTSTLTITGVQVDDEAVYFCGSGDSSSIAAFGAGTTLTVL
modifications: VH of PRb-CN32; VL of PRb-CN32
B4: PRb-CN26: anti-hPDGFR-β scFv clone (VH SEQ ID NO 55, VL SEQ ID NO 56), tested as scFv-Cκ-anti-cotinine scFv bispecific antibody (antibody, V domains shown)
VH: AVTLDESGGGLQTPGGGLSLVCKASGFTFSDRGIHWVRQAPGKGLEWVAGIGNTGSYTAYAPAVKGRATISRDNGQSTVRLQLNNLRAEDTATYYCAKRGFMDAGGIDAWGHGTEVIVSSTS
VL: LTQPSSVSANPGETVKITCSGGGSYAGSYYYGWYQQKSPGSAPVTVIYDNTNRPSNIPSRFSGSLSGSTDTLTITGVQAEDEAVYFCGGYDGISDTGIFGAGTTLTVL
modifications: VH of PRb-CN26; VL of PRb-CN26

Experiments:
[1] = biological target: T1, NIH3T3 cells expressing mPDGFR-β (Mus musculus, UniProt P05622); experiment: Flow cytometry competition against PRb-CN01-rabbit Fc on NIH3T3 cells; assay type: binding; conditions: PRb-CN01-rabbit Fc 50 nM, competitor 1 μM, FIG. 19b
T1 construct: host or cells: NIH3T3
T1 sequence (P05622 32-1098): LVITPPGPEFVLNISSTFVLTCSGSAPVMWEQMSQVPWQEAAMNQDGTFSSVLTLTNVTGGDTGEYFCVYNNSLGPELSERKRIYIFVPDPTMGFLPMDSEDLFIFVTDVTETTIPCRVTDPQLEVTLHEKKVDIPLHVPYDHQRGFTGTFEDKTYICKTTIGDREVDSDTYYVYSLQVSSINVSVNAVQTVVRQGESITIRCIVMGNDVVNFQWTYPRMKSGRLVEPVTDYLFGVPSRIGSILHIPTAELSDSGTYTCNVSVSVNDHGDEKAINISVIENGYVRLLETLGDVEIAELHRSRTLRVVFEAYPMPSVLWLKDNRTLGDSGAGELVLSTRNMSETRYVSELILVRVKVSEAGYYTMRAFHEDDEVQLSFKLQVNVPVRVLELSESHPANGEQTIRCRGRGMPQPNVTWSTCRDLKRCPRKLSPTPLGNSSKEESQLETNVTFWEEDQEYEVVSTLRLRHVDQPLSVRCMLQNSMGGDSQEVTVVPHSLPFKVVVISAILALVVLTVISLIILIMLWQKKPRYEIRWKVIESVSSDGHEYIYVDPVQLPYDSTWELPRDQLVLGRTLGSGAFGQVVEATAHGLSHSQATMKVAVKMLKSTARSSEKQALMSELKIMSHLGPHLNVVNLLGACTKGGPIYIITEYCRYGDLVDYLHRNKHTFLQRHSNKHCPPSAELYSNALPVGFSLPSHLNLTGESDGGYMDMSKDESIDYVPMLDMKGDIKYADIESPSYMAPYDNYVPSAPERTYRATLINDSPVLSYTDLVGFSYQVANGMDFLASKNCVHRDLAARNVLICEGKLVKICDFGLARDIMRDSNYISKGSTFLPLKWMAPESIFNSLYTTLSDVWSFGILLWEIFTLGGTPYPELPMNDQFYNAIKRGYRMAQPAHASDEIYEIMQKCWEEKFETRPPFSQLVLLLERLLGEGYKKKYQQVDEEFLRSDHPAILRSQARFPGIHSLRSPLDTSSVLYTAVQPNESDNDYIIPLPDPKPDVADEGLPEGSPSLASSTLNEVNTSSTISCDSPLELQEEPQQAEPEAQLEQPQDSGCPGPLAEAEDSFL
Experimental: According to the same manner as in Example 5, PRb-CN01-rabbit Fc (50 nM) and PRb-CN01, control antibody, PRb-CN32 bispecific antibody scFv-Cκ-scFv (1 μM) were cultured on NIH3T3 cells for 1 hour. After washing, it was reacted with FITC-anti rabbit Fc antibody (172-1506, KPL, Gaithersburg, Maryland, USA) at 4° C. for 1 hour. After washing, it was classified and analyzed with a FACS Canto II instrument (BD Biosciences, San Jose, CA, USA). 10,000 cells were identified for each measurement. The results were analyzed by FlowJo (Tree Star, Ashland, OR, USA) (FIG. 19b).

[2] = biological target: T2, Rhesus PDGFR-β (Macaca mulatta, UniProt I0FLK2); experiment: Cross-species enzyme immunoassay, Rhesus PDGFR-β; assay type: binding; conditions: 100 nM; FIG. 17
T2 construct: Fc; purchased Sino Biological Inc. 90215-C02H
T2 sequence (I0FLK2 33-531 limits assumed): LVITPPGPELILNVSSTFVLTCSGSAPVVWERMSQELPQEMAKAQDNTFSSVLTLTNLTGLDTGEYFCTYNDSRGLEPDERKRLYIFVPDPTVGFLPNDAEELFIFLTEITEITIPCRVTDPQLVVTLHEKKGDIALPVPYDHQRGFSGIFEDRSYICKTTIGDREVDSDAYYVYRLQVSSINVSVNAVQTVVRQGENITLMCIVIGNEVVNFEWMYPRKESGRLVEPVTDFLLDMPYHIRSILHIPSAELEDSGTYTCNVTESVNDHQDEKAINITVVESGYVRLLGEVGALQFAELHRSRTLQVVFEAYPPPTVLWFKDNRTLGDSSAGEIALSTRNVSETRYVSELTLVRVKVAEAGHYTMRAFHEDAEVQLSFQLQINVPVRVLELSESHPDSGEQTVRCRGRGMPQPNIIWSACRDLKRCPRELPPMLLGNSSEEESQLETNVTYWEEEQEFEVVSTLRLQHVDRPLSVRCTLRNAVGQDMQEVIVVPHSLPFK
Experimental: (§1) 100 ng of hPDGFR-β, mPDGFR-β, rhesus PDGFR-β (90215-C02H, Sino Biological Inc. Beijing, China), cynomolgus monkey PDGFR-β, Sus scrofa PDGFR-β-Fc chimera or TNF-α receptor extracellular domain-human Fc fusion protein was coated with 4° C. temperature O/N. After blocking the wells, sequential culture of the anti-hPDGFR-β scFv-Cκ-scFv fusion protein and the HRP conjugated anti-human Cκ antibody was followed in the same manner as in Example 3.
(§2) FIG. 17 is a graph showing an experiment of the cross-species reaction of the bispecific antibody against the anti-hPDGFR-β antibody according to the present invention. On the microtiter plates coated with hPDGFR-β, mPDGFR-β, Rhesus PDGFR-β, Cynomolgus monkey PDGFR-β, Sus scrofa PDGFR-β and control Fc coated, the bispecific antibody containing anti-hPDGFR-β antibody according to the present invention (100 nM) was reacted and the amount of bound bispecific antibody was measured using HRP conjugated anti-human Cκ antibody and TMB.

[3] = system: Cynomolgus monkey PDGFR-β; experiment: Cross-species enzyme immunoassay, Cynomolgus monkey PDGFR-β; assay type: binding; conditions: 100 nM; FIG. 17
Cynomolgus monkey PDGFR-β, sequence (as listed by the source): as the sequence (I0FLK2 33-531 limits assumed) above
Experimental: as §1, §2

[4] = biological target: T3, human pericyte cells expressing hPDGFR-β (Homo sapiens, UniProt P09619); experiment: Flow cytometry binding to human pericyte cells expressing hPDGFR-β; conditions: 100 nM antibody, FIG. 13b
T3 construct: host or cells: human pericyte cells
T3 sequence (P09619 33-1106): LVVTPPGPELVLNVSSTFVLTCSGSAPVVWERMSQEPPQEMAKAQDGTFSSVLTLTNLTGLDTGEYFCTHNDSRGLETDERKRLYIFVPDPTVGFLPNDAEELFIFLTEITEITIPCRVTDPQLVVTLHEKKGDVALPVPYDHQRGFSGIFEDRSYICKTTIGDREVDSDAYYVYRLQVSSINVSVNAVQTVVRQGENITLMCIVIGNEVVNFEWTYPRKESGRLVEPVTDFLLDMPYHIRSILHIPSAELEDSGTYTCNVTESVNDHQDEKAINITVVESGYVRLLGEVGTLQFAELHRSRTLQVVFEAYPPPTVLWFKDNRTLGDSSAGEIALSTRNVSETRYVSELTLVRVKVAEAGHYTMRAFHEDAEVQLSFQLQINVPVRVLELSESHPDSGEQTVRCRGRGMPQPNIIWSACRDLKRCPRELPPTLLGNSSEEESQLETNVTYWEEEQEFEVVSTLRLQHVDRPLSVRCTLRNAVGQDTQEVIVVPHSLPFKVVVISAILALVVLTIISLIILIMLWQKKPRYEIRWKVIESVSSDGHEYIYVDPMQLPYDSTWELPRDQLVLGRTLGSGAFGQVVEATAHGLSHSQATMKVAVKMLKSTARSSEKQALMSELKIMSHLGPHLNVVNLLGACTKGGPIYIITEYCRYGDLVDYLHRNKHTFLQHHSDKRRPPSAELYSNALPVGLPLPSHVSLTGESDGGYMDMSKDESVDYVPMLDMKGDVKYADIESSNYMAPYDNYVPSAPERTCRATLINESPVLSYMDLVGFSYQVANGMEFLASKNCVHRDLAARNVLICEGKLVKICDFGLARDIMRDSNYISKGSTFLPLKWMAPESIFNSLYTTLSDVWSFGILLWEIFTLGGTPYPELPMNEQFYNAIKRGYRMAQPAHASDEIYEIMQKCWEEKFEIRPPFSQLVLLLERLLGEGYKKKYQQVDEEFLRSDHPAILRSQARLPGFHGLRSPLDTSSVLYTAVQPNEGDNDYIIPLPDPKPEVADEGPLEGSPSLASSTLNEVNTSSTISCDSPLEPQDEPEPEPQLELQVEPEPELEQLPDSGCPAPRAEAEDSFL
Experimental: Human pericyte cells were cultured at 4° C. for 1 hour using the bispecific antibody of scFv-Cκ-scFv fusion protein (100 nM) under two different conditions with or without hPDGF-BB-biotin (100 nM, BT220; R&D systems). The cells were washed 4 times with flow cytometry buffer and cultured with allophycocyanin (APC)-anti-human Cκ antibody (clone TB28-2; BD Biosciences, San Jose, CA, USA) and streptavidin-phycoerythrin (PE) (12-4317-87; eBioscience, ThermoFisher). After washing, it was classified and analyzed with a FACS Canto II instrument (BD Biosciences, San Jose, CA, USA). 10,000 cells were used for each measurement, and the results were analyzed by FlowJo (Tree Star, Ashland, OR, USA).

[5] = system: A-431 cells; experiment: Cytotoxicity in A-431 cells not expressing hPDGFR-β; assay type: cell-based; conditions: complex with cot-duo (DAR4); FIG. 16
Experimental: FIG. 16 is a graph showing that cytotoxicity assays of bispecific antibody related with anti-hPDGFR-β antibody complexed with cot-duo complexes on the cells not expressing hPDGFR-β. A-431 cells were treated with anti-hPDGFR-β x cotinine fusion protein and cot-duo (DAR4). The cellular ATP levels were measured to determine relative cell viability. Bispecific anti-mCD154 x cotinine scFv-Cκ-scFv fusion protein was used as a negative control. DMSO was used as a vehicle control of cot-duo. Results are shown as the mean±SD acquired from three repetitive experiments.
All of the anti-hPDGFR-β x cotinine scFv-Cκ-scFv fusion proteins had not higher toxicity than the control antibody anti-mCD154 x cotinine scFv-Cκ-scFv fusion protein (FIG. 16). Therefore, as a result of anti-proliferative analysis result, the bispecific antibody/cot-duo complex had higher cytotoxicity in the human pericyte cell lines expressing hPDGFR-β, compared to the control anti-mCD154 x cotinine scFv-Cκ-scFv, but there was no difference in cytotoxicity in A-431 not expressing hPDGFR-β, compared to the control anti-mCD154 x cotinine scFv-Cκ-scFv.

[6] = biological target: T4, PDGFR-β (Homo sapiens, UniProt P09619); experiment: Enzyme immunoassay on hPDGFR-β-Fc chimera coated plate; assay type: binding; set-up: made in house; conditions: 100 nM; FIG. 17
T4 sequence (P09619 33-531): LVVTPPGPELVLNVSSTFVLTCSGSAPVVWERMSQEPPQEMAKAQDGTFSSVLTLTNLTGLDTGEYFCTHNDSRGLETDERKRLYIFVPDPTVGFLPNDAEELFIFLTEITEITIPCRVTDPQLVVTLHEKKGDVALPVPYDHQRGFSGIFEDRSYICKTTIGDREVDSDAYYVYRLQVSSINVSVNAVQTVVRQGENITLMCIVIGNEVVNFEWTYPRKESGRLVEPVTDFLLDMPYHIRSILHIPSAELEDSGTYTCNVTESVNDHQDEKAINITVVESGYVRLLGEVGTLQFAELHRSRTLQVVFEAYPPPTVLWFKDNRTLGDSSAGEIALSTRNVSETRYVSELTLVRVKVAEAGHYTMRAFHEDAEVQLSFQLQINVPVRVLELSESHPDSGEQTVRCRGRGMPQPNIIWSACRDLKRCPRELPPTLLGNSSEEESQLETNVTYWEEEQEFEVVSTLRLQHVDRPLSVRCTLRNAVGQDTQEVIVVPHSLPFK
Experimental: 100 ng of hPDGFR-β-Fc chimera in the coating buffer or extracellular region of TNF-α receptor-human Fc fusion protein was coated on a microtiter plate at 4° C. O/N. Each well was blocked with 150 μL of 3% (w/v) BSA (bovine serum albumin) in PBS as a blocking agent at 37° C. for 1 hour. After treatment with various concentrations of bispecific antibodies of scFv-Cκ-scFv fusion protein (0.01 nM-1 μM), the analysis was performed in the same protocol of the concentration-dependent binding ability of anti-mPDGFRR-β scFv-Cκ-scFv fusion protein.
as §1

[7] = biological target: T4, PDGFR-β; experiment: Competition enzyme immunoassay with hPDGF-BB; assay type: binding; set-up: made in house; conditions: hPDGF-BB 100 nM
Experimental: In order to confirm the competition between the bispecific antibody scFv-Cκ-scFv and hPDGF-BB, as in Example 3, hPDGFR-β-Fc chimera was coated on a microtiter plate and then blocked. The microtiter plate was treated with various concentrations of the bispecific antibody (0.01 nM-1 μM) with or without addition of hPDGF-BB (100 nM; 220-BB; R&D systems), and then incubated at 37° C. for 2 hours. The washing, incubation, and detection were performed in the same manner as the enzyme immunoassay described above.

Molecule | inhibition of binding of PRb-CN01-rabbit Fc to mPDGFR-β on the cell surface [1] | cross-species binding, Rhesus PDGFR-β [2] | cross-species binding, Cynomolgus monkey PDGFR-β [3] | cell binding in the presence of hPDGF-BB-biotin [4] | toxicity in A-431 cells compared to control anti-mCD154 x cotinine scFv-Cκ-scFv [5] | cross-species binding, hPDGFR-β [6] | binding ability to hPDGFR-β in the presence of hPDGF-BB [7]
B1 | inhibited |  |  |  |  |  | 
B2 |  | confirmed to bind | confirmed to bind | able to bind to hPDGFR-β in the presence of hPDGF-BB-biotin | equivalent cytotoxicity | confirmed to bind | not inhibited in the presence of hPDGF-BB
B3 | inhibited | confirmed to bind | confirmed to bind | able to bind to hPDGFR-β in the presence of hPDGF-BB-biotin | equivalent cytotoxicity | confirmed to bind | not inhibited in the presence of hPDGF-BB
B4 |  | confirmed to bind | confirmed to bind | able to bind to hPDGFR-β in the presence of hPDGF-BB-biotin | equivalent cytotoxicity | confirmed to bind | not inhibited in the presence of hPDGF-BB
